The values that follow come from US20240409906, “INTEGRASES, LANDING PAD ARCHITECTURES, AND ENGINEERED CELLS COMPRISING THE SAME” (Asimov Inc., published 2024).

Common to all, as to assay: cell_activity; attB x attP EGFP inversion reporter, HEK293FT
One data set concerns the target T1, Int32 (Rhodococcus jostii RHA1).
T1 chain: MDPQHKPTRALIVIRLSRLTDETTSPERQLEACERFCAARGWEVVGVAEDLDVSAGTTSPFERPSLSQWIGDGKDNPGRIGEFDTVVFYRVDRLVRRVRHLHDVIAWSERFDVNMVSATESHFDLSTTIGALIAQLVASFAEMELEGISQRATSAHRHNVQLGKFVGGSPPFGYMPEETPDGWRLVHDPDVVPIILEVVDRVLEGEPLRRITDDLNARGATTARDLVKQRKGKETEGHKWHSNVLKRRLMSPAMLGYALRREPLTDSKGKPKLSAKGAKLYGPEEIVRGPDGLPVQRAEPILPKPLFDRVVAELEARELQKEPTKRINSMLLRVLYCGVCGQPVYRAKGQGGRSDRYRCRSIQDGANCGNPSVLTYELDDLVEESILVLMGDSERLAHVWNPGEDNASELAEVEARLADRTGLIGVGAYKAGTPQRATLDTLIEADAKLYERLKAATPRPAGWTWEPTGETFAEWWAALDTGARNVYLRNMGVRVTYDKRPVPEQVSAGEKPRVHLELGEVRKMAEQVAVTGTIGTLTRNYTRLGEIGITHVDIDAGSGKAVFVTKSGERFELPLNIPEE
As to conditions: tags: C-terminal GS linker-SV40 NLS; chain copies: 4.

The target of another data set is T2, Int29 (Bacillus weihenstephanensis KBAB4).
T2 chain: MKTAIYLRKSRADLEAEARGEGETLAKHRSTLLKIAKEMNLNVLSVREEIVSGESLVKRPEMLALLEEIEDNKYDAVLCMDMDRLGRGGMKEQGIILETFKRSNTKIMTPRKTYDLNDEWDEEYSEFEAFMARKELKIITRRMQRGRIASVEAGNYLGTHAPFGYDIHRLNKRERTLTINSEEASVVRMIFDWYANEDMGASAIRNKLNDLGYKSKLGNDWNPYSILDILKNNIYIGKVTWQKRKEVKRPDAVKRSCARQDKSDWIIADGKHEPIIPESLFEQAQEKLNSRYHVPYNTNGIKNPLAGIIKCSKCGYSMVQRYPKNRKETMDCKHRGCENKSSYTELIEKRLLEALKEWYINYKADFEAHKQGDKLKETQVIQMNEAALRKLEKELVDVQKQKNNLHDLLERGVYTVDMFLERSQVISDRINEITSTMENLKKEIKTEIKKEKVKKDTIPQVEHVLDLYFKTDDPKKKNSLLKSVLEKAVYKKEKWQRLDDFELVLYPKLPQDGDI
As to conditions: tags: C-terminal GS linker-SV40 NLS; chain copies: 4.

The target of another data set is T3, Int23 (Clostridium difficile 630).
T3 chain: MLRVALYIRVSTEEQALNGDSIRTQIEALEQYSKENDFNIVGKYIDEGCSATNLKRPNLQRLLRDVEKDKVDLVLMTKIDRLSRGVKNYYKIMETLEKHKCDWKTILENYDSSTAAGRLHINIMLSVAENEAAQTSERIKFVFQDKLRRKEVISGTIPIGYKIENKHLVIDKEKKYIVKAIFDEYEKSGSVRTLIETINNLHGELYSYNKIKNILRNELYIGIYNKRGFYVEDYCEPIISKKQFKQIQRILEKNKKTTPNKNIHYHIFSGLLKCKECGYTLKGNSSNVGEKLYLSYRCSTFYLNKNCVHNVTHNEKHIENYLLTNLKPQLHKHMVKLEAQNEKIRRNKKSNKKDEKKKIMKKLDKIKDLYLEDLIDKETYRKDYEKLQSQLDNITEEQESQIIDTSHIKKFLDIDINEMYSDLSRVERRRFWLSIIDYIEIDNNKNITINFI
As to conditions: tags: C-terminal GS linker-SV40 NLS.

The target in the next data set is T4, Int30 (Bacillus cereus AH187).
T4 chain: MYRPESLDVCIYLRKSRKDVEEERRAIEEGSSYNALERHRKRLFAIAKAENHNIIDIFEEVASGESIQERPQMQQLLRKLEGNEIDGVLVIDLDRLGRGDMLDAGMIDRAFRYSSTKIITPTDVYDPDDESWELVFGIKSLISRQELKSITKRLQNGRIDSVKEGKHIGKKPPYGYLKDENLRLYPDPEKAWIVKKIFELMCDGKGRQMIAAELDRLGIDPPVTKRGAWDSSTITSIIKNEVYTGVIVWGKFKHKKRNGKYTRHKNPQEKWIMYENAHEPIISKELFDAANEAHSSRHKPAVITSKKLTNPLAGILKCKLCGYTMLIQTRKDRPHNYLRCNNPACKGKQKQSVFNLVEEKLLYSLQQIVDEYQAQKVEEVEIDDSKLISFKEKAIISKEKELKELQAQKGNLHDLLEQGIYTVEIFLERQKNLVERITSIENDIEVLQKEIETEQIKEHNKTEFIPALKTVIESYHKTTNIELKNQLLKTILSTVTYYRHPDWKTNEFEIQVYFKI
As to conditions: tags: C-terminal GS linker-SV40 NLS; chain copies: 4.

A further data set addresses T5, Int4 (Streptococcus equi subsp. equi 4047).
T5 chain: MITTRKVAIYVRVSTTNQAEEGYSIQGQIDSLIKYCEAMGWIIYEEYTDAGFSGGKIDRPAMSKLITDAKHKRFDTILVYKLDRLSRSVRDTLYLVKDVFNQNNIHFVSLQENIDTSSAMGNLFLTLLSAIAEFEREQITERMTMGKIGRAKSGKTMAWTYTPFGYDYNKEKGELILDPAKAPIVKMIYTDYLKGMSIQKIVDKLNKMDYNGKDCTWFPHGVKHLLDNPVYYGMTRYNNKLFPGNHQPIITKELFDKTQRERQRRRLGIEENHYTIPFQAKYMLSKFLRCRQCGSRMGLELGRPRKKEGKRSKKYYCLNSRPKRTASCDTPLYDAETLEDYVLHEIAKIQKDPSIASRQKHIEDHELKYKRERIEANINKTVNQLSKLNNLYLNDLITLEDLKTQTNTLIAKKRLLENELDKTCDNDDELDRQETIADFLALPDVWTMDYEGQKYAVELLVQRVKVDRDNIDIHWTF
As to conditions: tags: C-terminal GS linker-SV40 NLS.

Another data set has as its target Int26 (Clostridium botulinum F str. Langeland). As to conditions: tags: C-terminal GS linker-SV40 NLS.
The next data set addresses T6, Int5 (Streptomyces phage PhiK38-1).
T6 chain: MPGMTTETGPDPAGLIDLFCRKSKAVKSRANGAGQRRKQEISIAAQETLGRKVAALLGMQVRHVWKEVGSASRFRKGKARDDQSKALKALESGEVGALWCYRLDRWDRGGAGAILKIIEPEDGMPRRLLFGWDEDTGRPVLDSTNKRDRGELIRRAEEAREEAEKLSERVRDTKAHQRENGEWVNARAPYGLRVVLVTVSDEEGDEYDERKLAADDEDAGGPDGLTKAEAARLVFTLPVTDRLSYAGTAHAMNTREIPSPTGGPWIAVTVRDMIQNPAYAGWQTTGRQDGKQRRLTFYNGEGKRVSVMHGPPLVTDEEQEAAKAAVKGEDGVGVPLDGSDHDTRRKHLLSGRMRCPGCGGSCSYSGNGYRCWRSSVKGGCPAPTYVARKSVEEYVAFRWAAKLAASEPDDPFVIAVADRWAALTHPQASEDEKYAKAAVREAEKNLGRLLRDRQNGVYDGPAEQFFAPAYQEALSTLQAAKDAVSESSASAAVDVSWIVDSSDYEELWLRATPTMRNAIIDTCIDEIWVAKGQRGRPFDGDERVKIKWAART
As to conditions: tags: C-terminal GS linker-SV40 NLS.

B1: Int32 attB (dsDNA)
DNA 1: ATCGCGCAGAACGGTGCGGTGATCAGTGAGTACGCACCGGGCACGACACCGGCGAAGCATCG
DNA 2: CGATGCTTCGCCGGTGTCGTGCCCGGTGCGTACTCACTGATCACCGCACCGTTCTGCGCGAT
For the molecule B1, in the data set with Int32, the binding signal was 0.137 fraction of Bxb1.

B2: Int29 attP (dsDNA)
DNA 1: CGTCACCTTGTTGGCGTAATTAGATTTACTCCAACAGGGTGATGACAAAGCTAATGAATTTT
DNA 2: AAAATTCATTAGCTTTGTCATCACCCTGTTGGAGTAAATCTAATTACGCCAACAAGGTGACG
For the molecule B2, the binding signal with Int29 was 2.92 fraction of Bxb1.

B3: Int23 attB (dsDNA)
DNA 1: TATTCTAAGTAATGTAGTTTTACCACATCCACTAGGTCCGAGTAAACATAGAAATTCCCCT
DNA 2: AGGGGAATTTCTATGTTTACTCGGACCTAGTGGATGTGGTAAAACTACATTACTTAGAATA
For the molecule B3, the binding signal with Int23 is 0.201 fraction of Bxb1.

B4: Int30 attB (dsDNA)
DNA 1: GTAATATGTTTGGATATGGGGAAGTGAATCAGTACAACCGCCACAGTACCCTCATGTCAGCC
DNA 2: GGCTGACATGAGGGTACTGTGGCGGTTGTACTGATTCACTTCCCCATATCCAAACATATTAC
In the case of B4, in the data set with Int30, the binding signal was 1.29 fraction of Bxb1.

B5: Int23 attP (dsDNA)
DNA 1: TATATAATTATTTGGACTAACATATAGTATCCACTTGGCTATTATTAGTTAGTCCAAATAAATA
DNA 2: TATTTATTTGGACTAACTAATAATAGCCAAGTGGATACTATATGTTAGTCCAAATAATTATATA
In the case of B5, the binding signal with Int23 is 0.201 fraction of Bxb1.

B6: Int4 attB (dsDNA)
DNA 1: TTCCAAAGAGCGCCCAACGCGACCTGAAATTTGAATAAGACTGCTGCTTGTGTAAAGGCGATGATT
DNA 2: AATCATCGCCTTTACACAAGCAGCAGTCTTATTCAAATTTCAGGTCGCGTTGGGCGCTCTTTGGAA
Take B6: in the data set with Int4, the binding signal is 1.85 fraction of Bxb1.

B7: Int26 attB (dsDNA)
DNA 1: AGAAATAGACCTTTCAACTGGACAAGGTGCTGATAAAACTATGCAGCAAGTCTTAAGTAAA
DNA 2: TTTACTTAAGACTTGCTGCATAGTTTTATCAGCACCTTGTCCAGTTGAAAGGTCTATTTCT
Take B7: the binding signal with Int26 was 0.204 fraction of Bxb1.

B8: Int4 attP (dsDNA)
DNA 1: CAAAAATTACAAAGTTTTCAACCCTTGATTTGAATTAGCGGTCAAATAATTTGTAATTCGTTT
DNA 2: AAACGAATTACAAATTATTTGACCGCTAATTCAAATCAAGGGTTGAAAACTTTGTAATTTTTG
For B8, in the data set with Int4, the binding signal is 1.85 fraction of Bxb1.

B9: Int5 attP (dsDNA)
DNA 1: CCCTAATACGCAAGTCGATAACTCTCCTGGGAGCGTTGACAACTTGCGCACCCTGATCTG
DNA 2: CAGATCAGGGTGCGCAAGTTGTCAACGCTCCCAGGAGAGTTATCGACTTGCGTATTAGGG
Take B9: the binding signal with Int5 was 0.152 fraction of Bxb1.

B10: Int30 attP (dsDNA)
DNA 1: ATAATAGTGTATATGGTAGAGAATTAAACCAGTTTAATACTCCACCATGTACACGCAGTGAG
DNA 2: CTCACTGCGTGTACATGGTGGAGTATTAAACTGGTTTAATTCTCTACCATATACACTATTAT
B10: the binding signal with Int30 is 1.29 fraction of Bxb1.

B11: Int5 attB (dsDNA)
DNA 1: GAGCGCCGGATCAGGGAGTGGACGGCCTGGGAGCGCTACACGCTGTGGCTGCGGTCGGTGC
DNA 2: GCACCGACCGCAGCCACAGCGTGTAGCGCTCCCAGGCCGTCCACTCCCTGATCCGGCGCTC
Turning to B11, the binding signal in the data set with Int5 is 0.152 fraction of Bxb1.

B12: Int26 attP (dsDNA)
DNA 1: AAATATAACCTGTGTATTGAAACAAGGTGCTGATAAAACCCTTTCATAAACACAAGTAAATA
DNA 2: TATTTACTTGTGTTTATGAAAGGGTTTTATCAGCACCTTGTTTCAATACACAGGTTATATTT
Take B12: in the data set with Int26, the binding signal was 0.204 fraction of Bxb1.

B13: Int32 attP (dsDNA)
DNA 1: CTATGTGGTGGTAATAGCGAGTAGGGGACTACTCGCTCCAGGTACATTAACACCATGGA
DNA 2: TCCATGGTGTTAATGTACCTGGAGCGAGTAGTCCCCTACTCGCTATTACCACCACATAG
B13: in the data set with Int32, the binding signal was 0.137 fraction of Bxb1.

B14: Int29 attB (dsDNA)
DNA 1: TTTGTAGCCATTAGGCGCATTAGGTTGACGCCATTAAGCCCTAAAGCATCATTCGTCGAAAC
DNA 2: GTTTCGACGAATGATGCTTTAGGGCTTAATGGCGTCAACCTAATGCGCCTAATGGCTACAAA
With B14, the binding signal with Int29 was 2.92 fraction of Bxb1.
